Seven molecules from publication PMC3549669 (Science signaling, 2012) can be followed below.

The data set “SEC” deals with the molecule itself. The experiment in a line: SEC. In general terms: In gel filtration, larger molecules generally elute earlier.
The next data set has as its target T1, GST-TBK1 (human, UniProt Q9UHD2 1-729).
T1 sequence (looked up): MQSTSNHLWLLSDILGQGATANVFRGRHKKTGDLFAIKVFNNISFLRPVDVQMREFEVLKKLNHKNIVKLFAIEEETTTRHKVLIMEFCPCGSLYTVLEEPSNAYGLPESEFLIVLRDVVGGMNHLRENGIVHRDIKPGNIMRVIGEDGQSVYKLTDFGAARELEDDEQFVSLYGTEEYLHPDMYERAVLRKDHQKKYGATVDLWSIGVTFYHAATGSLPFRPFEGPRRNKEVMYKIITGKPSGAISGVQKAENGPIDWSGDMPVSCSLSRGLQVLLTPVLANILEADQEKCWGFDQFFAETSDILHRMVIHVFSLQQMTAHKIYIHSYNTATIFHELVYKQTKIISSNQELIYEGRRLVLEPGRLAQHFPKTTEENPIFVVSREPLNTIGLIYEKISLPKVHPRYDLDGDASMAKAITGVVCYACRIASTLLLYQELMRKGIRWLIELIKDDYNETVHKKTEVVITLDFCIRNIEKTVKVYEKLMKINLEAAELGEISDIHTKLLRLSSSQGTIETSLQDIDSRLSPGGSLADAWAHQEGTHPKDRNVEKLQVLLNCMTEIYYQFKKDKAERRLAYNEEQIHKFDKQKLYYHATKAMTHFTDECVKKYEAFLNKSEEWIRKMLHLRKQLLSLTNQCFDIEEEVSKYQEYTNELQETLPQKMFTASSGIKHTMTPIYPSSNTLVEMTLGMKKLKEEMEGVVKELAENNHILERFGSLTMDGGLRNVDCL
Briefly: pull-down.

Another data set deals with T2, Flag-TBK1 (human, UniProt Q9UHD2 1-729).
T2 sequence (looked up): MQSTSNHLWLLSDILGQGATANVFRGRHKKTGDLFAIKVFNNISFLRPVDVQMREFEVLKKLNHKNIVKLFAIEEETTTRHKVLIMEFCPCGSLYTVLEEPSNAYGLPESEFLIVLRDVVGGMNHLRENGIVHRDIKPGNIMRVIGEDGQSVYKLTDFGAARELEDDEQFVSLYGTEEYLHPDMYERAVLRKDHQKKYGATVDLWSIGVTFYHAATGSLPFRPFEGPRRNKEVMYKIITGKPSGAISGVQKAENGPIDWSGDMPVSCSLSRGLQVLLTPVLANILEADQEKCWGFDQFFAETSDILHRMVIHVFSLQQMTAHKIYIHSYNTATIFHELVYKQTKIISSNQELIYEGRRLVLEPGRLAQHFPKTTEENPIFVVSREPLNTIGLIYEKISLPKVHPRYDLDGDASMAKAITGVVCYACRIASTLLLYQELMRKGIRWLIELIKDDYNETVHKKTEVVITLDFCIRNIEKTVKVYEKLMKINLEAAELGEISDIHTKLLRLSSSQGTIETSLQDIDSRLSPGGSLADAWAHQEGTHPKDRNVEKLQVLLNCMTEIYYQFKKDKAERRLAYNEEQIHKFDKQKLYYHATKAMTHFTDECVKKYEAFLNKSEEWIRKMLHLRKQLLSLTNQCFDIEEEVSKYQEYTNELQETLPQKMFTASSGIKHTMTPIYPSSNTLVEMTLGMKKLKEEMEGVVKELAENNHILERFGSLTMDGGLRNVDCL
Briefly: pull-down.

Take VTVGSLKTSAVPSTSTMSQEPELLISGMEKPLPLRTDFS (domain or fragment, human, UniProt Q86WV6 341-379, looked up) [His6-STING (341–379)]: the binding result in “SEC” and in the data set with GST-TBK1 was “binds” each time.
In the case of VTVGSLKTSAVPSTSTMSQEPELLIAGMEKPLPLRTDFS (domain or fragment, human, UniProt Q86WV6 341-379, looked up) [His6-STING (341–379) S366A], the binding result in “SEC” was “binds”.
As to VTVGSLKTSAVPSTSTMAQEPELLISGMEKPLPLRTDFS (domain or fragment, human, UniProt Q86WV6 341-379, looked up) [GST-STING (341–379) S358A], the binding result in the data set with Flag-TBK1 was “binds”.
On to VTVGSLKTSAVPSTSTMSQEPELLISGMEKPLPARTDFS (domain or fragment, human, UniProt Q86WV6 341-379, looked up) [His6-STING (341–379) L374A], for which the binding result in “SEC” is on record as “binds”.
As to VTVGSLKTSAVPSTSTMSQEPELLISGMEKPLPLRTDFS (domain or fragment, human, UniProt Q86WV6 341-379, looked up) [GST-STING (341–379)], the binding result in the data set with Flag-TBK1 is listed as “binds”.
Consider VTVGSLKTSAVPSTSTMSQEPELLISGMEKPLPARTDFS (domain or fragment, human, UniProt Q86WV6 341-379, looked up) [GST-STING (341–379) L374A], for which the binding result with Flag-TBK1 is on record as “binds”.
On the same count and under the same terms, to VTVGSLKTSAVPSTSTMSQEPELLIAGMEKPLPLRTDFS (domain or fragment, human, UniProt Q86WV6 341-379, looked up) [GST-STING (341–379) S366A] belongs “binds”.
